In the supplement of paper PMC11908140:

B1: library; numbered along this chain (parent)
chain: MRKPRAAVGSGHRKQAASQEGRQKHAKNNSQAKPSACDGLARQPEEVVLQASVSSYHLFRDVAEVTAFRGSLLSWYDQEKRDLPWRRRAEDEMDLDRRAYAVWVSEVMLQQTQVATVINYYTGWMQKWPTLQDLASASLEEVNQLWAGLGYYSRGRRLQEGARKVVEELGGHMPRTAETLQQLLPGVGRYTAGAIASIAFGQATGVVDGNVARVLCRVRAIGADPSSTLVSQQLWGLAQQLVDPARPGDFNQAAMELGATVCTPQRPLCSQCPVESLCRARQRVEQEQLLASGSLSGSPDVEECAPNTGQCHLCLPPSEPWDQTLGVVNFPRKASRKPPREESSATCVLEQPGALGAQILLVQRPNSGLLAGLWEFPSVTWEPSEQLQRKALLQELQRWAGPLPATHLRHLGEVVHTFSHIKLTYQVYGLALEGQTPVTTVPPGARWLTQEEFHTAAVSTAMKKVFRVYQGQQPGTCMGSKRSQVSSPCSRKKPRMGQQVLDNFFRSHISTDAHSLNSAAQ

Variants of: B1
Assay: 8OG:A repair function score (normalized; synonymous = 0, nonsense = -1) (normalized log-likelihood score); higher = more repair activity (WT-like)
Conditions: with 8OG:A DNA repair reporter (GFP) in HEK-293 MUTYH KO cells
In short: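 Lentiviral MUTYH cDNA NNN codon-scan libraries were expressed in MUTYH knockout HEK-293 cells with 10 pg/ml doxycycline, and the cells received an 8OG:A GFP repair reporter together with mCherry. At 72 h, viable mCherry+ cells went into GFP+ (repair) or GFP− bins, three replicates per tile, before tile amplicons were sequenced. A repair function score was then built from per-tile Rosace fitness scores, anchored on the synonymous and nonsense distributions. Synonymous medians sat at 0 and nonsense at -1, and variants under 300 counts per million at the start were left out.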
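Also: cells sorted at 72 h after reporter transfection.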

Going from MRKPRAAVGSGHRKQAASQEGRQKHAKNNSQAKPSACDGLARQPEEVVLQASVSSYHLFRDVAEVTAFRGSLLSWYDQEKRDLPWRRRAEDEMDLDRRAYAVWVSEVMLQQTQVATVINYYTGWMQKWPTLQDLASASLEEVNQLWAGLGYYSRGRRLQEGARKVVEELGGHMPRTAETLQQLLPGVGRYTAGAIASIAFGQATGVVDGNVARVLCRPRAIGADPSSTLVSQQLWGLAQQLVDPARPGDFNQAAMELGATVCTPQRPLCSQCPVESLCRARQRVEQEQLLASGSLSGSPDVEECAPNTGQCHLCLPPSEPWDQTLGVVNFPRKASRKPPREESSATCVLEQPGALGAQILLVQRPNSGLLAGLWEFPSVTWEPSEQLQRKALLQELQRWAGPLPATHLRHLGEVVHTFSHIKLTYQVYGLALEGQTPVTTVPPGARWLTQEEFHTAAVSTAMKKVFRVYQGQQPGTCMGSKRSQVSSPCSRKKPRMGQQVLDNFFRSHISTDAHSLNSAAQ [V218P] to MRKPRAAVGSGHRKQAASQEGRQKHAKNNSQAKPSACDGLARQPEEVVLQASVSSYHLFRDVAEVTAFRGSLLSWYDQEKRDLPWRRRAEDEMDLDRRAYAVWVSEVMLQQTQVATVINYYTGWMQKWPTLQDLASASLEEVNQLWAGLGYYSRGRRLQEGARKVVEELGGHMPRTAETLQQLLPGVGRYTAGAIASIAFGQATGVVDGNVARVLCRLRAIGADPSSTLVSQQLWGLAQQLVDPARPGDFNQAAMELGATVCTPQRPLCSQCPVESLCRARQRVEQEQLLASGSLSGSPDVEECAPNTGQCHLCLPPSEPWDQTLGVVNFPRKASRKPPREESSATCVLEQPGALGAQILLVQRPNSGLLAGLWEFPSVTWEPSEQLQRKALLQELQRWAGPLPATHLRHLGEVVHTFSHIKLTYQVYGLALEGQTPVTTVPPGARWLTQEEFHTAAVSTAMKKVFRVYQGQQPGTCMGSKRSQVSSPCSRKKPRMGQQVLDNFFRSHISTDAHSLNSAAQ [V218L], the “8OG:A repair function score” value rises from -1.04 to -0.178.

Compared with MRKPRAAVGSGHRKQAASQEGRQKHAKNNSQAKPSACDGLARQPEEVVLQASVSSYHLFRDVAEVTAFRGSLLSWYDQEKRDLPWRRRAEDEMDLDRRAYAVWVSEVMLQQTQVATVINYYTGWMQKWPTLQDLASASLEEVNQLWAGLGYYSRGRRLQEGARKVVEELGGHMPRTAETLQQLLPGVGRYTAGAIASIAFGQATGVVDGNVARVLCRRRAIGADPSSTLVSQQLWGLAQQLVDPARPGDFNQAAMELGATVCTPQRPLCSQCPVESLCRARQRVEQEQLLASGSLSGSPDVEECAPNTGQCHLCLPPSEPWDQTLGVVNFPRKASRKPPREESSATCVLEQPGALGAQILLVQRPNSGLLAGLWEFPSVTWEPSEQLQRKALLQELQRWAGPLPATHLRHLGEVVHTFSHIKLTYQVYGLALEGQTPVTTVPPGARWLTQEEFHTAAVSTAMKKVFRVYQGQQPGTCMGSKRSQVSSPCSRKKPRMGQQVLDNFFRSHISTDAHSLNSAAQ [V218R], MRKPRAAVGSGHRKQAASQEGRQKHAKNNSQAKPSACDGLARQPEEVVLQASVSSYHLFRDVAEVTAFRGSLLSWYDQEKRDLPWRRRAEDEMDLDRRAYAVWVSEVMLQQTQVATVINYYTGWMQKWPTLQDLASASLEEVNQLWAGLGYYSRGRRLQEGARKVVEELGGHMPRTAETLQQLLPGVGRYTAGAIASIAFGQATGVVDGNVARVLCRIRAIGADPSSTLVSQQLWGLAQQLVDPARPGDFNQAAMELGATVCTPQRPLCSQCPVESLCRARQRVEQEQLLASGSLSGSPDVEECAPNTGQCHLCLPPSEPWDQTLGVVNFPRKASRKPPREESSATCVLEQPGALGAQILLVQRPNSGLLAGLWEFPSVTWEPSEQLQRKALLQELQRWAGPLPATHLRHLGEVVHTFSHIKLTYQVYGLALEGQTPVTTVPPGARWLTQEEFHTAAVSTAMKKVFRVYQGQQPGTCMGSKRSQVSSPCSRKKPRMGQQVLDNFFRSHISTDAHSLNSAAQ [V218I] is higher in “8OG:A repair function score” value: -1.03 for the first, -0.196 for the second.

Compared with MRKPRAAVGSGHRKQAASQEGRQKHAKNNSQAKPSACDGLARQPEEVVLQASVSSYHLFRDVAEVTAFRGSLLSWYDQEKRDLPWRRRAEDEMDLDRRAYAVWVSEVMLQQTQVATVINYYTGWMQKWPTLQDLASASLEEVNQLWAGLGYYSRGRRLQEGARKVVEELGGHMPRTAETLQQLLPGVGRYTAGAIASIAFGQATGVVDGNVARVLCRGRAIGADPSSTLVSQQLWGLAQQLVDPARPGDFNQAAMELGATVCTPQRPLCSQCPVESLCRARQRVEQEQLLASGSLSGSPDVEECAPNTGQCHLCLPPSEPWDQTLGVVNFPRKASRKPPREESSATCVLEQPGALGAQILLVQRPNSGLLAGLWEFPSVTWEPSEQLQRKALLQELQRWAGPLPATHLRHLGEVVHTFSHIKLTYQVYGLALEGQTPVTTVPPGARWLTQEEFHTAAVSTAMKKVFRVYQGQQPGTCMGSKRSQVSSPCSRKKPRMGQQVLDNFFRSHISTDAHSLNSAAQ [V218G], MRKPRAAVGSGHRKQAASQEGRQKHAKNNSQAKPSACDGLARQPEEVVLQASVSSYHLFRDVAEVTAFRGSLLSWYDQEKRDLPWRRRAEDEMDLDRRAYAVWVSEVMLQQTQVATVINYYTGWMQKWPTLQDLASASLEEVNQLWAGLGYYSRGRRLQEGARKVVEELGGHMPRTAETLQQLLPGVGRYTAGAIASIAFGQATGVVDGNVARVLCRKRAIGADPSSTLVSQQLWGLAQQLVDPARPGDFNQAAMELGATVCTPQRPLCSQCPVESLCRARQRVEQEQLLASGSLSGSPDVEECAPNTGQCHLCLPPSEPWDQTLGVVNFPRKASRKPPREESSATCVLEQPGALGAQILLVQRPNSGLLAGLWEFPSVTWEPSEQLQRKALLQELQRWAGPLPATHLRHLGEVVHTFSHIKLTYQVYGLALEGQTPVTTVPPGARWLTQEEFHTAAVSTAMKKVFRVYQGQQPGTCMGSKRSQVSSPCSRKKPRMGQQVLDNFFRSHISTDAHSLNSAAQ [V218K] is lower in “8OG:A repair function score” value: -0.74 for the first, -1 for the second.

First: MRKPRAAVGSGHRKQAASQEGRQKHAKNNSQAKPSACDGLARQPEEVVLQASVSSYHLFRDVAEVTAFRGSLLSWYDQEKRDLPWRRRAEDEMDLDRRAYAVWVSEVMLQQTQVATVINYYTGWMQKWPTLQDLASASLEEVNQLWAGLGYYSRGRRLQEGARKVVEELGGHMPRTAETLQQLLPGVGRYTAGAIASIAFGQATGVVDGNVARVLCRMRAIGADPSSTLVSQQLWGLAQQLVDPARPGDFNQAAMELGATVCTPQRPLCSQCPVESLCRARQRVEQEQLLASGSLSGSPDVEECAPNTGQCHLCLPPSEPWDQTLGVVNFPRKASRKPPREESSATCVLEQPGALGAQILLVQRPNSGLLAGLWEFPSVTWEPSEQLQRKALLQELQRWAGPLPATHLRHLGEVVHTFSHIKLTYQVYGLALEGQTPVTTVPPGARWLTQEEFHTAAVSTAMKKVFRVYQGQQPGTCMGSKRSQVSSPCSRKKPRMGQQVLDNFFRSHISTDAHSLNSAAQ [V218M]
Second: MRKPRAAVGSGHRKQAASQEGRQKHAKNNSQAKPSACDGLARQPEEVVLQASVSSYHLFRDVAEVTAFRGSLLSWYDQEKRDLPWRRRAEDEMDLDRRAYAVWVSEVMLQQTQVATVINYYTGWMQKWPTLQDLASASLEEVNQLWAGLGYYSRGRRLQEGARKVVEELGGHMPRTAETLQQLLPGVGRYTAGAIASIAFGQATGVVDGNVARVLCRHRAIGADPSSTLVSQQLWGLAQQLVDPARPGDFNQAAMELGATVCTPQRPLCSQCPVESLCRARQRVEQEQLLASGSLSGSPDVEECAPNTGQCHLCLPPSEPWDQTLGVVNFPRKASRKPPREESSATCVLEQPGALGAQILLVQRPNSGLLAGLWEFPSVTWEPSEQLQRKALLQELQRWAGPLPATHLRHLGEVVHTFSHIKLTYQVYGLALEGQTPVTTVPPGARWLTQEEFHTAAVSTAMKKVFRVYQGQQPGTCMGSKRSQVSSPCSRKKPRMGQQVLDNFFRSHISTDAHSLNSAAQ [V218H]
The “8OG:A repair function score” value of the first is higher: 0.0454 for the first, -0.41 for the second.

Compared with MRKPRAAVGSGHRKQAASQEGRQKHAKNNSQAKPSACDGLARQPEEVVLQASVSSYHLFRDVAEVTAFRGSLLSWYDQEKRDLPWRRRAEDEMDLDRRAYAVWVSEVMLQQTQVATVINYYTGWMQKWPTLQDLASASLEEVNQLWAGLGYYSRGRRLQEGARKVVEELGGHMPRTAETLQQLLPGVGRYTAGAIASIAFGQATGVVDGNVARVLCRQRAIGADPSSTLVSQQLWGLAQQLVDPARPGDFNQAAMELGATVCTPQRPLCSQCPVESLCRARQRVEQEQLLASGSLSGSPDVEECAPNTGQCHLCLPPSEPWDQTLGVVNFPRKASRKPPREESSATCVLEQPGALGAQILLVQRPNSGLLAGLWEFPSVTWEPSEQLQRKALLQELQRWAGPLPATHLRHLGEVVHTFSHIKLTYQVYGLALEGQTPVTTVPPGARWLTQEEFHTAAVSTAMKKVFRVYQGQQPGTCMGSKRSQVSSPCSRKKPRMGQQVLDNFFRSHISTDAHSLNSAAQ [V218Q], MRKPRAAVGSGHRKQAASQEGRQKHAKNNSQAKPSACDGLARQPEEVVLQASVSSYHLFRDVAEVTAFRGSLLSWYDQEKRDLPWRRRAEDEMDLDRRAYAVWVSEVMLQQTQVATVINYYTGWMQKWPTLQDLASASLEEVNQLWAGLGYYSRGRRLQEGARKVVEELGGHMPRTAETLQQLLPGVGRYTAGAIASIAFGQATGVVDGNVARVLCRNRAIGADPSSTLVSQQLWGLAQQLVDPARPGDFNQAAMELGATVCTPQRPLCSQCPVESLCRARQRVEQEQLLASGSLSGSPDVEECAPNTGQCHLCLPPSEPWDQTLGVVNFPRKASRKPPREESSATCVLEQPGALGAQILLVQRPNSGLLAGLWEFPSVTWEPSEQLQRKALLQELQRWAGPLPATHLRHLGEVVHTFSHIKLTYQVYGLALEGQTPVTTVPPGARWLTQEEFHTAAVSTAMKKVFRVYQGQQPGTCMGSKRSQVSSPCSRKKPRMGQQVLDNFFRSHISTDAHSLNSAAQ [V218N] is higher in “8OG:A repair function score” value: -0.472 for the first, -0.444 for the second.

Going from MRKPRAAVGSGHRKQAASQEGRQKHAKNNSQAKPSACDGLARQPEEVVLQASVSSYHLFRDVAEVTAFRGSLLSWYDQEKRDLPWRRRAEDEMDLDRRAYAVWVSEVMLQQTQVATVINYYTGWMQKWPTLQDLASASLEEVNQLWAGLGYYSRGRRLQEGARKVVEELGGHMPRTAETLQQLLPGVGRYTAGAIASIAFGQATGVVDGNVARVLCRFRAIGADPSSTLVSQQLWGLAQQLVDPARPGDFNQAAMELGATVCTPQRPLCSQCPVESLCRARQRVEQEQLLASGSLSGSPDVEECAPNTGQCHLCLPPSEPWDQTLGVVNFPRKASRKPPREESSATCVLEQPGALGAQILLVQRPNSGLLAGLWEFPSVTWEPSEQLQRKALLQELQRWAGPLPATHLRHLGEVVHTFSHIKLTYQVYGLALEGQTPVTTVPPGARWLTQEEFHTAAVSTAMKKVFRVYQGQQPGTCMGSKRSQVSSPCSRKKPRMGQQVLDNFFRSHISTDAHSLNSAAQ [V218F] to MRKPRAAVGSGHRKQAASQEGRQKHAKNNSQAKPSACDGLARQPEEVVLQASVSSYHLFRDVAEVTAFRGSLLSWYDQEKRDLPWRRRAEDEMDLDRRAYAVWVSEVMLQQTQVATVINYYTGWMQKWPTLQDLASASLEEVNQLWAGLGYYSRGRRLQEGARKVVEELGGHMPRTAETLQQLLPGVGRYTAGAIASIAFGQATGVVDGNVARVLCRERAIGADPSSTLVSQQLWGLAQQLVDPARPGDFNQAAMELGATVCTPQRPLCSQCPVESLCRARQRVEQEQLLASGSLSGSPDVEECAPNTGQCHLCLPPSEPWDQTLGVVNFPRKASRKPPREESSATCVLEQPGALGAQILLVQRPNSGLLAGLWEFPSVTWEPSEQLQRKALLQELQRWAGPLPATHLRHLGEVVHTFSHIKLTYQVYGLALEGQTPVTTVPPGARWLTQEEFHTAAVSTAMKKVFRVYQGQQPGTCMGSKRSQVSSPCSRKKPRMGQQVLDNFFRSHISTDAHSLNSAAQ [V218E], the “8OG:A repair function score” value falls from -0.436 to -0.985.
